The values below come from patent US20050124539A1 (Takeda / Millennium, published 2005).

Assay [1] deals with T1, Human GPR7 (human, UniProt P48145 1-328).
T1 construct: Full-length receptor expressed in CHO dhfr- cells; also called Human GPR7 receptor; GPR7 receptor
T1 sequence: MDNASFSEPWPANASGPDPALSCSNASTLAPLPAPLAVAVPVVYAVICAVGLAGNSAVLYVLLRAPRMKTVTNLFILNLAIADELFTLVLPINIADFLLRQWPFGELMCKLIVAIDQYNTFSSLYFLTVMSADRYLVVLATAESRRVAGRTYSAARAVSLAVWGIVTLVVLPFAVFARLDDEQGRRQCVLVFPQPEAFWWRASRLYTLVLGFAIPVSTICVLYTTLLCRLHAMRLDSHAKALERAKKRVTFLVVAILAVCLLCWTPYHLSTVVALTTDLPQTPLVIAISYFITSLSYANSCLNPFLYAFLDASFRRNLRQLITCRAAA
The assay is described as follows: competition with [125I-Tyr10]-hGPR8L(1-23), membrane fraction of GPR7 expressing CHO cells.

Assay [2] concerns the target T1, Human GPR7. The assay is described as follows: cell-based or functional assay.
The target of assay [3] is T1, Human GPR7. The assay is described as follows: cell-based or functional assay. The source holds these as a separate data set.
The target of assay [4] is T2, Human GPR8 receptor protein (human, UniProt P48146 1-333).
T2 construct: Full-length receptor expressed in CHO dhfr- cells (CHO/GPR8)
T2 sequence (P48146 whole entry): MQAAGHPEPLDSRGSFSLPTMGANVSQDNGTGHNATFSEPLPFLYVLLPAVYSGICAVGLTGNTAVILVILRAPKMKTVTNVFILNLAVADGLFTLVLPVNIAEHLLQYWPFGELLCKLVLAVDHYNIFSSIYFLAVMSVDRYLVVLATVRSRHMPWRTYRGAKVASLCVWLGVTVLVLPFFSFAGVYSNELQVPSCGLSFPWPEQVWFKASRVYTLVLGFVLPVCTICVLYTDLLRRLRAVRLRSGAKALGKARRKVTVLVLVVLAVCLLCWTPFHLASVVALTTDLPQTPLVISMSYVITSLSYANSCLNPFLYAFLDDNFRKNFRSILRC
The assay is described as follows: radioligand filter binding, membrane fraction of Human GPR8 expressing CHO cells. The protocol:
Using [¹²⁵I]-labeled hGPR8L(1-23) prepared as described in Reference Example 42 and a cell membrane fraction prepared from Human GPR8 expressing cells by the similar manner as described in Reference Example 6, a receptor binding assay was carried out as follows.
Cell membrane fraction prepared from Human GPR8 expressing cells was diluted to various concentration with assay buffer (25 mM Tris-HCl, 5 mM EDTA, 0.05% CHAPS (3-[(3-Cholamidopropyl) Dimethyl-Ammonio]-1-Propanesulfonate), 0.1% BSA, 0.25 mM PMSF, 1 μg/ml Pepstatin, 20 μg/ml Leupeptin, pH7.4), and 200 μl each of the diluent was dispensed into polypropilene test tube (Falcon 2053). In order to determine an amount of maximum binding (TB), […] of DMSO and 2 μl of 7 nM [¹²⁵I-Tyr²]-hGPR8L(1-23) or [¹²⁵I-Tyr¹⁰]-hGPR8L(1-23) were added to the membrane fraction solution. Further, in order to determine a non-specific binding (NSB), 2 μt of 100 μM hGPR8L(1-23)/DMSO solution and 2 μl of 7 nM [¹²⁵I]-Tyr²]-hGPR8L(1-23) or [¹²⁵I-Tyr¹⁰]-hGPR8L(1-23) were added to the membrane fraction solution. […] After filtration, a radioactivity remaining on the filter was counted using γ-counter, and an amount of specific binding (SB) was estimated by subtracting an amount of non-specific binding from an amount of maximum binding. […]

Assay [5] has as its target T3, TGR26, rat-derived G protein-coupled receptor protein (rat, UniProt Q56UD9 1-329).
T3 construct: Expressed in CHO dhfr- cells from pAK-rGPR7; also called rat TGR26; TGR26 receptor
T3 sequence: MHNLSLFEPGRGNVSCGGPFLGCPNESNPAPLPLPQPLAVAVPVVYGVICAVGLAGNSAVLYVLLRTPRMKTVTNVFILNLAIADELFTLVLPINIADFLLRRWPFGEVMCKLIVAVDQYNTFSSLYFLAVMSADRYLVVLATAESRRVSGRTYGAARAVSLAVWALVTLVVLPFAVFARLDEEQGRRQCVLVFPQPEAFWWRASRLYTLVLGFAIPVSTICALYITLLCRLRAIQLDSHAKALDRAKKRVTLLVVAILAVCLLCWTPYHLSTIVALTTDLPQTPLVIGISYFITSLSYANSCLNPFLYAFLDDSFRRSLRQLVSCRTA
The assay is described as follows: competition with [125I-Tyr10]-hGPR8L(1-23), membrane fraction of TGR26 expressing CHO cells. How it is done:
Cell membrane fraction prepared from TGR26 expressing cells was diluted to various concentration with assay buffer (25 mM Tris-HCl, 5 mM EDTA, 0.05% CHAPS (3-[(3-Cholamidopropyl) Dimethyl-Ammonio]-1-Propanesulfonate), 0.1% BSA, 0.5 mM PMSF, 1 μg/ml Pepstatin, 20 μg/ml Leupeptin, 4 μg/ml E-64, pH7.4), and 200 μl each of the diluent was dispensed into polypropilene test tube (Falcon 2053). In order to determine an amount of maximum binding, 2 μl of DMSO and 2 μl of 7 nM [¹²⁵-Tyr¹⁰]-hGPR8L(1-23) were added to the membrane fraction solution. Further, in order to determine a non-specific binding, 2 μl of 100 μM hGPR8L(1-23)/DMSO solution and 2 μl of 7 nM [¹²⁵I]-Tyr¹⁰]-hGPR8L(1-23) were added to the membrane fraction solution. The reaction was done at 25° C. for 75 minutes, and the reaction mixture was filtered by suction filtration using Whatman glassfilter (GF-F) treated with polyethyleneimine. In addition, the filter was washed twice with 1.5 ml of washing buffer (25 mM Tris-HCl, 5 mM EDTA, 0.05% CHAPS, 0.1% BSA, pH7.4). After filtration, a radioactivity remaining on the filter was counted using γ-counter, and an amount of specific binding was estimated by subtracting an amount of non-specific binding from an amount of maximum binding.
A receptor binding activity of human- and porcine-homologue derivatives of GPR8 ligand peptide obtained in the reference examples was measured using a membrane fraction of TGR26 expressing CHO cells and [¹²⁵I-Tyr¹⁰]-hGPR8L(1-23) by the method described in Reference Example 73.

Assay [6] addresses T2, Human GPR8 receptor protein. The assay is described as follows: cell-based or functional assay.
The target is the same in assay [7]. The assay is described as follows: competition with [125I-Tyr10]-hGPR8L(1-23), membrane fraction of GPR8 expressing CHO cells. The protocol:
Cell membrane fraction prepared from Human GPR8 expressing cells was diluted to various concentration with assay buffer (25 mM Tris-HCl, 5 mM EDTA, 0.05% CHAPS (3-[(3-Cholamidopropyl) Dimethyl-Ammonio]-1-Propanesulfonate), 0.1% BSA, 0.25 mM PMSF, 1 μg/ml Pepstatin, 20 μg/ml Leupeptin, pH7.4), and 200 μl each of the diluent was dispensed into polypropilene test tube (Falcon 2053). In order to determine an amount of maximum binding (TB), […] of DMSO and 2 μl of 7 nM [¹²⁵I-Tyr²]-hGPR8L(1-23) or [¹²⁵I-Tyr¹⁰]-hGPR8L(1-23) were added to the membrane fraction solution. Further, in order to determine a non-specific binding (NSB), 2 μt of 100 μM hGPR8L(1-23)/DMSO solution and 2 μl of 7 nM [¹²⁵I]-Tyr²]-hGPR8L(1-23) or [¹²⁵I-Tyr¹⁰]-hGPR8L(1-23) were added to the membrane fraction solution. The reaction was done at 25° C. for 60 minutes, and the reaction mixture was filtered by suction filtration using Whatman glassfilter (GF-F) treated with polyethyleneimine. After filtration, a radioactivity remaining on the filter was counted using γ-counter, and an amount of specific binding (SB) was estimated by subtracting an amount of non-specific binding from an amount of maximum binding. Since the specific binding in the case where [¹²⁵I-Tyr¹⁰]-hGPR8L(1-23) was used, was twice as much as that in the case where [¹²⁵1-Tyr²]-hGPR8L(1-23) was used, in practice, [¹²⁵I-Tyr¹⁰]-hGPR8L(1-23) was used in the assay. When the concentration of membrane fraction was changed, a specific binding of [¹²⁵I-Tyr¹⁰]-hGPR8L(1-23) was perceived depending on the concentration of membrane fraction.
A receptor binding activity of human- and porcine-homologue derivatives of GPR8 ligand peptide, wherein the synthesis method has been described in the specification, was measured using a membrane fraction of GPR8 expressing CHO cells and [¹²⁵-Tyr¹⁰]-hGPR8L(1-23) by the method described in Reference Example 43.

No end group written: not given here. *: point of attachment. Propanoyl(3-indol-3-yl) = O=C(CCc1c[nH]c2ccccc12)*; 125I = [125I]*

B1: human homologue of GPR8 ligand peptide consisting of 30 residues (peptide)
peptide: WYKHVASPRYHTVGRAAGLLMGLRRSPYLW
notes: also called hGPR8L(1-30); Human GPR8 ligand (1-30)
In assay [1], B1 gave a half-maximal inhibitory concentration (IC50) of 0.025 nM. In addition, the “Promoting activity to GTPγS binding (EC50 nM)” value (“Promoting activity” for short) in assay [2] turned out to be 0.67 nM. Moreover, the “inhibition of intracellular cAMP production (IC50)” value in assay [3] turned out to be 0.13 nM.

In the case of WY(125I)KHVASPRYHTVGRAAGLLMGL [[^125I-Tyr^2]-hGPR8L(1-23)], the binding result in assay [4] is reported as “binds”.

As for HVASPRYHTVGRAAGLLMGL (also called hGPR8L(4-23)) [Human GPR8 ligand (4-23)], the concentration for half-maximal inhibition (IC50) in assay [5] was found to be 2000 nM; in assay [1] it was 1200 nM; in assay [7] it was 1400 nM. For the same molecule, the “Promoting activity” value in assay [2] is greater than 10000 nM; in assay [6], 6700 nM.

B2: porcine GPR8 ligand (1-23) (peptide)
peptide: WYKHTASPRYHTVGRAAGLLMGL
notes: also called pGPR8L(1-23); porcine homologue of GPR8 ligand peptide
Turning to B2, the values for the 50% inhibitory concentration (IC50) in assay [5], in assay [1] and in assay [7] were 0.12 nM, 0.066 nM and 0.38 nM, respectively. The “Promoting activity” value in assay [2] worked out at 0.35 nM; in assay [6] it was 1.5 nM.

In the case of XYKHVASPRYHTVGRAAGLLMGL (N-alpha-acetyl on Trp 1, also called Ac-hGPR8L(1-23)) [[N^α-Acetyl-Trp^1]-Human GPR8 ligand (1-23)], the values for the half-maximal inhibitory concentration (IC50) in assay [5], in assay [1] and in assay [7] were 0.27 nM, 0.077 nM and 2.4 nM, respectively. Also, the “Promoting activity” value worked out at 1.5 nM in assay [2] and 14 nM in assay [6].

For WYKHVASPRYHTVGRAAG (also called hGPR8L(1-18)) [Human GPR8 ligand (1-18)], the IC50 in assay [5] is 760 nM; in assay [1] it was 2400 nM; in assay [7] it was 2700 nM. Further, the “Promoting activity” value was 6200 nM in assay [2] and greater than 10000 nM in assay [6].

For the molecule WYKHVASPRYHTVGRAAGL (also called hGPR8L(1-19)) [Human GPR8 ligand (1-19)], the figures for the half-maximal inhibitory concentration (IC50) in assay [5], in assay [1] and in assay [7] were 9.9 nM, 1.7 nM and 100 nM, respectively. The “Promoting activity” value in assay [2] turned out to be 84 nM; in assay [6], 1000 nM.

Regarding WYKHVASPRYHTVGRAAGLLXGL (methionine sulfoxide, Met(O), at position 21, also called [MET(O)]-hGPR8L(1-23)) [Human GPR8 ligand (1-23) oxidant], the results for the IC50 in assay [5], in assay [1] and in assay [7] were 0.29 nM, 0.17 nM and 0.31 nM, respectively. Also, the “Promoting activity” value in assay [2] stood at 1.6 nM; in assay [6] it was 1.4 nM.

Turning to RYHTVGRAAGLLMGL (also called hGPR8L(9-23)) [Human GPR8 ligand (9-23)], the IC50 in assay [5] is 2500 nM; in assay [1], 2200 nM; in assay [7], 1300 nM. The “Promoting activity” value was greater than 10000 nM in assay [2] and 4200 nM in assay [6].

Regarding {Propanoyl(3-indol-3-yl)}-YKHVASPRYHTVGRAAGLLMGL (also called IndPr-hGPR8L(2-23)) [[N-3-Indolepropanoyl-Tyr^2]-human GPR8 ligand (2-23)], the 50% inhibitory concentration (IC50) in assay [5] was 0.12 nM; in assay [1] it was 0.044 nM; in assay [7] it was 0.28 nM. The “Promoting activity” value in assay [2] worked out at 0.85 nM; in assay [6], 5 nM.

For the molecule Ac-YKHVASPRYHTVGRAAGLLMGL (also called Ac-hGPR8L(2-23)) [[N-Acetyl-Tyr^2]-Human GPR8 ligand (2-23)], the results for the concentration for half-maximal inhibition (IC50) in assay [5], in assay [1] and in assay [7] were 570 nM, 570 nM and 420 nM, respectively. The “Promoting activity” value stood at 7000 nM in assay [2] and 7200 nM in assay [6].

For the molecule XYKHVASPRYHTVGRAAGLLMGL (D-Trp at position 1, also called [D-Trp^1]-hGPR8L(1-23)) [[D-Trp^1]-Human GPR8 ligand (1-23)], the IC50 in assay [5] came to 1.3 nM; in assay [1], 0.63 nM; in assay [7], 0.82 nM. The results for the “Promoting activity” value in assay [2] and in assay [6] were 2.3 nM and 7.1 nM, respectively.

B3: Fmoc-added Human GPR8L (1-23) (peptide)
peptide: XYKHVASPRYHTVGRAAGLLMGL
modifications: N-terminal Fmoc (N-9-fluorenylmethoxycarbonyl) on Trp 1
notes: also called Fmoc-hGPR8L(1-23); Human GPR8 ligand (1-23) modified by Fmoc
For B3, the values for the IC50 in assay [5], in assay [1] and in assay [7] were 0.23 nM, 0.14 nM and 0.2 nM, respectively. Besides, the “Promoting activity” value in assay [2] worked out at 6.6 nM; in assay [6], 240 nM.

Turning to YKHVASPRYHTVGRAAGLLMGL (also called hGPR8L(2-23)) [Human GPR8 ligand (2-23)], the figures for the IC50 in assay [5], in assay [1] and in assay [7] were 240 nM, 140 nM and 160 nM, respectively. For the same molecule, the “Promoting activity” value in assay [2] came to 7410 nM; in assay [6] it was 3900 nM.

For the molecule WYKHVASPRYHTVGRAAGLL (also called hGPR8L(1-20)) [Human GPR8 ligand (1-20)], the IC50 in assay [5] worked out at 0.17 nM; in assay [1] it was 0.094 nM; in assay [7], 0.2 nM. The “Promoting activity” value amounted to 0.88 nM in assay [2] and 0.86 nM in assay [6].
